According to publication PMC9069674, “Synthesis and Evaluation of Technetium-99m-Labeled pH (Low) Insertion Peptide Variant 7 for Early Diagnosis of MDA-MB-231 Triple-Negative Breast Cancer by Targeting the Tumor Microenvironment” (Frontiers in Oncology, 2022):

What was measured:
[1] = In vitro stability in PBS at room temperature (radiochemical purity by TLC); format: physicochemical; conditions: room temperature (25°C), 24 h after labeling, TLC on polyamide layer with acetonitrile
Protocol: (§1) The radiochemical purity of ^99mTc-pHLIP (Var7) and ^99mTc-kVar7 was determined by thin-layer chromatography (TLC). A thin polyamide layer was used as the stationary phase, and acetonitrile was used as the developing solvent. A sufficient amount of the labeled product was aspirated through a capillary pipette and spotted at the origin of the thin polyamide layer. The thin polyamide layer was air-dried and vertically placed in a test tube with developing solvent. The saturated thin polyamide layer was removed, dried, and placed on the TLC scanner for testing.
(§2) ^99mTc-pHLIP (Var7) and ^99mTc-kVar7 were placed in PBS at room temperature (25°C) and in fresh human serum at 37°C. Samples were taken to test the radiochemical purity at 1, 4, 6, and 24 h after labeling.

[2] = test system: MDA-MB-231 tumors; format: in vivo, BALB/c nude mice; conditions: 1, 2, 4, and 6 h after tail vein injection of about 11.1 MBq/200 μL, n = 3
Protocol: (§3) Animal experiments were approved by the ethics committee of Qingdao University, and the management of animals followed ethical standards. We built an MDA-MB-231 tumor model using four- to- five-week-old female BALB/c nude mice (Shanghai SLAC Laboratory Animal Co., Ltd, China). To do so, 0.1 mL of a cell suspension (50 µL PBS + 50 µL Matrigel) containing 1 × 10^6 MDA-MB-231 cells was subcutaneously inoculated into the right axilla of each mouse.
When tumor diameters reached 0.8–1.0 cm, six tumor-bearing nude mice were selected for imaging. Each nude mouse was injected with approximately 11.1 MBq/200 μL ^99mTc-pHLIP (Var7) or ^99mTc-kVar7 through the tail vein. The tumor-bearing mice were anesthetized with 2% isoflurane at 1 h, 2 h, 4 h, and 6 h after injection and were fixed on the imaging bed of a small-animal SPECT/CT imaging system in the prone position. A pinhole collimator was applied. The main parameters were a matrix size of 256 × 256, magnification power of 1.45, and acquisition time at each time point of 10 min.

[3] = test system: MDA-MB-231 tumors; set-up: species or system BALB/c nude mice; conditions: mouse, in vivo
Protocol: as §3
When tumor diameters reached 0.8–1.0 cm, 24 tumor-bearing nude mice were selected for an in vivo biodistribution experiment. Each nude mouse was injected with approximately 1480 kBq/200 μL ^99mTc-pHLIP (Var7) or ^99mTc-kVar7 through the tail vein. The mice were sacrificed humanely 1 h, 2 h, 4 h, and 6 h after injection, and their tissues and organs, such as the brain, heart, lung, liver, kidney, stomach, small intestine, blood, muscle, bone, and tumor, were weighed and measured for their radioactivity count. The results are expressed as the percentage of injected dose per gram of tissue (%ID/g).

[4] = test system: MDA-MB-231 cells; experiment: Binding of labeled peptides to MDA-MB-231 cells at different pH values; format: cell-based, human; conditions: n=3
Protocol: a. When MDA-MB-231 cells grew to more than 90% confluence, they were digested. The cell concentration was adjusted to approximately 1.0 × 10^5 cells/mL, and 1 mL of the cell solution was added to each well of a 12-well plate and cultured overnight in a 37°C cell incubator.
b. The medium was discarded, and the cells were washed with PBS twice. Then, 2 mL of fresh medium and 37 kBq ^99mTc-pHLIP (Var7) or ^99mTc-kVar7 (20-30 μL) were added to each well. We adjusted the pH values of the wells to four levels (pH 7.4, 7.0, 6.5, and 6.0).
c. After culturing for 30, 60, 90, 120, and 180 min, the supernatant was aspirated into a supernatant tube, and each well was washed two times with PBS at the corresponding pH (7.4, 7.0, 6.5, or 6.0). The cleaning solution was also added into the supernatant tube. The cells were digested fully with 0.25% trypsin, and the cell suspension was aspirated into a cell tube and washed twice with PBS. The cleaning solution was also added to the cell tube. A γ counter was applied to measure the radioactivity count of the cell tube (B) and supernatant tube (F). The cell-binding fraction of ^99mTc-pHLIP (Var7) or ^99mTc-kVar7 = B/(B+F) × 100%.

[5] = format: in vitro ADME, human
Protocol: as §1, §2

Substance	radiochemical purity in PBS at 24 h [1] [%]	SPECT/CT imaging of tumors [2]	blood clearance [3]	tumor/nontumor (T/NT) ratio, trend over time [3]	binding fraction to MDA-MB-231 cells ([4]; pH 6.0, 180 min, 37 kBq per well, γ counter, B/(B+F) × 100%, mean ± SD) [%]	binding fraction to MDA-MB-231 cells ([4]; pH 6.5, 180 min, 37 kBq per well, γ counter, B/(B+F) × 100%, mean ± SD) [%]	binding fraction to MDA-MB-231 cells ([4]; pH 7.0, 180 min, 37 kBq per well, γ counter, B/(B+F) × 100%, mean ± SD) [%]	binding fraction to MDA-MB-231 cells ([4]; pH 7.4, each time point (30, 60, 90, 120, and 180 min))	radiochemical purity in fresh human serum at 24 h [5] [%]	binding fraction to MDA-MB-231 cells ([4]; all tested pH values (6.0, 6.5, 7.0, and 7.4), each time point (30, 60, 90, 120, and 180 min))
GaGG-GABA-ACEEQNPWARYLEWLFPTETLLLEL-NH2 [^99mTc-pHLIP (Var7)]	> 99	clearly imaged at each time point	slow blood clearance	increased over time	3.33 ± 0.12	3.02 ± 0.04	2.87 ± 0.03	remained low	> 96	
GaGG-GABA-ACEEQNPWARYLKWLFPTKTLLLKL-NH2 [^99mTc-kVar7, technetium-99m-labeled control peptide kVar7, pH-insensitive, with N4 chelating group and GABA spacer, reference compound]	> 99	not imaged	slow blood clearance	no significant increasing trend					> 96	remained low
